Measured values: the supplement of paper PMC7877785
± gives the uncertainty stated by the source.

Experiment: self-splicing fitness, log relative to wild type (ln ratio); higher = more splicing; Tetrahymena group I intron in knt gene, E. coli kanamycin selection, DiMSum; sequences stand for … in CUCUCU…GGAGGGAAAAGUUAUCAGGCAUGCACCUGGUAGCUAGUCUUUAAACCAAUAGAUUGCAUCGGUUUAAAAGGCAAGACCGUCAAAUUGCGGGAAAGGGGUCAACAGCCGUUCAGUACCAAGUCUCAGGGGAAACUUUGAGAUGGCCUUGCAAAGGGUAUGGUAAUAAGCUGACGGACAUGGUCCUAACCACGCAGCCAAGUCCUAAGUCAACAGAUCUUCUGUUGAUAUGGAUGCAGUUCACAGACUAAAUGUCGGUCGGGGAAGAUGUAUUCUUCUCAUAAGAUAUAGUCGGACCUCUCCUUAAUGGGAGCUAGCGGAUGAAGUGAUGCAACACUGGAGCCGCUGGGAACUAAUUUGUAUGCGAAAGUAUAUUGAUUAGUUUUGGAGUACUCGUGGUCG
In short: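 A randomised library covering all eight P1ex-region intron nucleotides was built with the intron in the knt kanamycin-resistance gene on pET-22b(+) and held in E. coli BL21(DE3). Cells were grown overnight at 37°C or 30°C on LB agar, with or without 25 μg/mL kanamycin, plus 100 μg/mL carbenicillin, 50 μM IPTG and 0.2% rhamnose, and pooled colonies were amplicon-sequenced on an Illumina HiSeq 2500. DiMSum fitness is the error-weighted combination of wild-type-normalised replicate fold changes, kanamycin versus none.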

| Sequence | self-splicing fitness (ln) (30 °C) | self-splicing fitness (ln) (37 °C) |
| --- | --- | --- |
| GCCGAGCAAUAUUACGCCAA | -1.62 ± 0.43 |  |
| GCCGAGCAAUAUUACGCCCG | -2.68 ± 0.26 |  |
| GCCGAGCAAUAUUACGCCCU | -2.8 ± 0.25 | -0.0518 ± 0.2 |
| GCCGAGCAAUAUUACGCGAC | -2.44 ± 0.21 | -2.26 ± 0.35 |
| GCCGAGCAAUAUUACGGGUA | -1.36 ± 0.068 | -0.505 ± 0.068 |
| GCCGAGCAAUAUUACGUAGC | -2.02 ± 0.12 | -1.84 ± 0.14 |
| GCCGAGCAAUAUUACGUAUG | -3.36 ± 0.25 | -3.11 ± 0.38 |
| GCCGAGCAAUAUUACGUGCU | -3.92 ± 0.21 | -2.08 ± 0.15 |
| GCCGAGCAAUAUUACGUGGG | -4.56 ± 0.42 | -2.85 ± 0.27 |
| GCCGAGCAAUAUUACGUUCC | -1.3 ± 0.2 | -0.589 ± 0.25 |
| GCCGAGCAAUAUUACGUUCU | -1.23 ± 0.1 | -0.97 ± 0.1 |
| GCCGAGCAAUAUUACGUUGC | -3.96 ± 0.25 | -2.73 ± 0.22 |
| GCCGAGCAAUAUUACGUUUA | -2.56 ± 0.17 | 0.181 ± 0.12 |
| GCCUAGCAAUAUUACGACAG | -3.52 ± 0.29 | -2.82 ± 0.28 |
| GCCUAGCAAUAUUACGAGUG | -2.5 ± 0.11 | -0.934 ± 0.099 |
| GCCUAGCAAUAUUACGAUCA | -2.27 ± 0.27 | -2.22 ± 0.18 |
| GCCUAGCAAUAUUACGAUCG | -2.05 ± 0.15 | -1.36 ± 0.18 |
| GCCUAGCAAUAUUACGAUUA | -3.39 ± 0.29 | -1.63 ± 0.18 |
| GCCUAGCAAUAUUACGCACU | -0.602 ± 0.083 | 0.143 ± 0.078 |
| GCCUAGCAAUAUUACGCAGC | -4.41 ± 0.36 | -1.52 ± 0.19 |
| GCCUAGCAAUAUUACGCCCA | -2.69 ± 0.25 | -0.792 ± 0.2 |
| GCCUAGCAAUAUUACGCGAA | -2.72 ± 0.18 | -1.64 ± 0.14 |
| GCCUAGCAAUAUUACGCGUG | -4.17 ± 0.42 | -0.758 ± 0.17 |
| GCCUAGCAAUAUUACGCGUU | -0.166 ± 0.068 | 0.243 ± 0.075 |
| GCCUAGCAAUAUUACGCUAG |  | -2.47 ± 0.3 |
| GCCUAGCAAUAUUACGCUCC | -1.64 ± 0.28 | 0.265 ± 0.2 |

| Sequence | self-splicing fitness (ln) (30 °C) | self-splicing fitness (ln) (37 °C) |
| --- | --- | --- |
| GCCUAGCAAUAUUACGGAAU | -1.23 ± 0.074 | -0.307 ± 0.093 |
| GCCUAGCAAUAUUACGGCCA | -1.81 ± 0.33 | -1.52 ± 0.35 |
| GCCUAGCAAUAUUACGUACG | -2.67 ± 0.23 | -1.52 ± 0.24 |
| GCCUAGCAAUAUUACGUGCU | -2.06 ± 0.074 | -1.17 ± 0.084 |
| GCCUAGCAAUAUUACGUGGU | -3.71 ± 0.22 | -2.23 ± 0.25 |
| GCCUAGCAAUAUUACGUGUA | -1.55 ± 0.086 | -0.545 ± 0.088 |
| GCCUAGCAAUAUUACGUGUU | -0.926 ± 0.042 | 0.15 ± 0.055 |
| GCCUAGCAAUAUUACGUUUC | -2.03 ± 0.073 | -0.802 ± 0.079 |
| GCGAAGCAAUAUUACGAAUA | -2.34 ± 0.19 | -1.73 ± 0.24 |
| GCGAAGCAAUAUUACGAGUA | -2.13 ± 0.3 | -1.28 ± 0.19 |
| GCGAAGCAAUAUUACGAUCU | -1.09 ± 0.066 | -0.73 ± 0.079 |
| GCGAAGCAAUAUUACGGCAC | 0.112 ± 0.13 | 0.387 ± 0.17 |
| GCGAAGCAAUAUUACGGUUA | 0.0459 ± 0.22 | -0.871 ± 0.19 |
| GCGAAGCAAUAUUACGUCGG | -2.61 ± 0.21 | -0.565 ± 0.25 |
| GCGAAGCAAUAUUACGUGCA | -1.21 ± 0.13 | -0.452 ± 0.097 |
| GCGAAGCAAUAUUACGUGGC | -3.33 ± 0.39 | -2.35 ± 0.44 |
| GCGAAGCAAUAUUACGUGUA | -1.88 ± 0.093 | -1.09 ± 0.072 |
| GCGAAGCAAUAUUACGUGUC | -4.67 ± 0.46 | -3.21 ± 0.33 |
| GCGAAGCAAUAUUACGUUAC |  | -2.72 ± 0.43 |
| GCGAAGCAAUAUUACGUUCC | -2.43 ± 0.37 | -2.29 ± 0.44 |
| GCGCAGCAAUAUUACGAAUA | -2.09 ± 0.2 | -1.02 ± 0.14 |
| GCGCAGCAAUAUUACGACAG | -3.49 ± 0.17 | -3.05 ± 0.18 |
| GCGCAGCAAUAUUACGACCC | 0.715 ± 0.26 | 0.34 ± 0.27 |
| GCGCAGCAAUAUUACGAUAG | -2.97 ± 0.16 | -0.857 ± 0.12 |
| GCGCAGCAAUAUUACGAUCA | -1.5 ± 0.14 | -0.594 ± 0.15 |
| GCGCAGCAAUAUUACGAUGG | -1.42 ± 0.11 | 0.113 ± 0.16 |

| Sequence | self-splicing fitness (ln) (30 °C) | self-splicing fitness (ln) (37 °C) |
| --- | --- | --- |
| GCGCAGCAAUAUUACGAUUA | -1.02 ± 0.13 | -1.48 ± 0.13 |
| GCGCAGCAAUAUUACGCCAU | -3.8 ± 0.38 | -1.84 ± 0.3 |
| GCGCAGCAAUAUUACGCCUC | 0.178 ± 0.29 | -1.24 ± 0.29 |
| GCGCAGCAAUAUUACGCUAA | -1.42 ± 0.085 | -1.06 ± 0.11 |
| GCGCAGCAAUAUUACGCUUA | -0.793 ± 0.062 | -0.338 ± 0.067 |
| GCGCAGCAAUAUUACGGAGC | -2.35 ± 0.26 | -2.38 ± 0.49 |
| GCGCAGCAAUAUUACGGAUG | -1.72 ± 0.1 | -1.39 ± 0.12 |
| GCGCAGCAAUAUUACGGCCG | -2.99 ± 0.38 | -2.26 ± 0.26 |
| GCGCAGCAAUAUUACGGCGC | -2.58 ± 0.21 | -1.98 ± 0.24 |
| GCGCAGCAAUAUUACGGGUC | -2.71 ± 0.11 | -0.449 ± 0.092 |
| GCGCAGCAAUAUUACGGUCA | -1.41 ± 0.12 | -1.49 ± 0.099 |
| GCGCAGCAAUAUUACGUCUC | -0.0041 ± 0.098 | 0.525 ± 0.12 |
| GCGCAGCAAUAUUACGUUCC | -0.792 ± 0.096 | -0.406 ± 0.13 |
| GCGCAGCAAUAUUACGUUGC | -2.95 ± 0.14 | -2.51 ± 0.27 |
| GCGCAGCAAUAUUACGUUUG | -1.86 ± 0.14 | -1.76 ± 0.14 |
| GCGGAGCAAUAUUACGAUAA |  | -2.08 ± 0.35 |
| GCGGAGCAAUAUUACGGACA | -1.62 ± 0.21 | -2.26 ± 0.31 |
| GCGGAGCAAUAUUACGGAUU | -3.69 ± 0.27 | -1.28 ± 0.2 |
| GCGGAGCAAUAUUACGGCUC | -2.05 ± 0.36 |  |
| GCGGAGCAAUAUUACGGGCC | -2.57 ± 0.42 |  |
| GCGGAGCAAUAUUACGGUCU | -3.04 ± 0.44 | -2.35 ± 0.36 |
| GCGGAGCAAUAUUACGUACC | -3.69 ± 0.36 | -0.124 ± 0.43 |
| GCGGAGCAAUAUUACGUGGA | -3.37 ± 0.38 | -2.38 ± 0.42 |
| GCGGAGCAAUAUUACGUGGG | -2.01 ± 0.3 | -2.25 ± 0.34 |
| GCGGAGCAAUAUUACGUUAA | -2.66 ± 0.25 | -2.32 ± 0.3 |
| GCGGAGCAAUAUUACGUUGU | -2.96 ± 0.13 | -1.79 ± 0.14 |
